Measurements: publication PMC8533099, “Kinetic Analysis of the Interaction of Nicking Endonuclease BspD6I with DNA”

Tests used:
Conditions in all cases: blunt
Nt.BspD6I [1] = molecular target: T1, Nt.BspD6I (UniProt A3FEV7 1-604); experiment: stopped-flow Trp fluorescence; 10 mM Ca2+; kobs k1 261 s-1, k2 6.2 s-1; Stopped-flow, 37 °C, 10 mM CaCl2 or 10 mM MgCl2 (or 0.4 mM EDTA without divalent metal); 1 µM enzyme (Trp) or 1 µM DNA (FRET); buffer, salt and pH not in the supplied text
T1 sequence: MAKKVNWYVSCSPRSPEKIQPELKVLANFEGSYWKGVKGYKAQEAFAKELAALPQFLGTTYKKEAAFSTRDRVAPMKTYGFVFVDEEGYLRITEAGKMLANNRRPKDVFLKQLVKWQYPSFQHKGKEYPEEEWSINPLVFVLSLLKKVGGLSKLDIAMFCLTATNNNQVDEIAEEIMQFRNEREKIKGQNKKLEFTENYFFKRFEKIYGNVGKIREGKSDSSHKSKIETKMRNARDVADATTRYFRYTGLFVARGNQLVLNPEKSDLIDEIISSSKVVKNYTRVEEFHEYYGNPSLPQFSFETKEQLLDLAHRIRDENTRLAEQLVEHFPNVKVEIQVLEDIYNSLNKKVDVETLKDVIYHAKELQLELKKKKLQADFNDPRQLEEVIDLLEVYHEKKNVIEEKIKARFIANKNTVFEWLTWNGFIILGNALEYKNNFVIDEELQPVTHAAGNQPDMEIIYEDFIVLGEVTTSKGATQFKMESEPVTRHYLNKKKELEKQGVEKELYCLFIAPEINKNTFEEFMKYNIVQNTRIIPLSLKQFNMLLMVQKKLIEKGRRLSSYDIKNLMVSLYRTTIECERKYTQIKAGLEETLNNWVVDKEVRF

Nt.BspD6I [2] = molecular target: T1, Nt.BspD6I; experiment: stopped-flow Trp fluorescence; 10 mM Mg2+; kobs k1 232 s-1, k2 21 s-1; Stopped-flow, 37 °C, 10 mM CaCl2 or 10 mM MgCl2 (or 0.4 mM EDTA without divalent metal); 1 µM enzyme (Trp) or 1 µM DNA (FRET); buffer, salt and pH not in the supplied text
Nt.BspD6I [3] = molecular target: T1, Nt.BspD6I; experiment: stopped-flow Trp fluorescence; 10 mM Mg2+; kobs k1 126 s-1, k2 7.0 s-1; Stopped-flow, 37 °C, 10 mM CaCl2 or 10 mM MgCl2 (or 0.4 mM EDTA without divalent metal); 1 µM enzyme (Trp) or 1 µM DNA (FRET); buffer, salt and pH not in the supplied text
Nt.BspD6I [4] = molecular target: T1, Nt.BspD6I; experiment: stopped-flow Trp fluorescence; 10 mM Mg2+; kobs k1 490 s-1, k2 128 s-1; Stopped-flow, 37 °C, 10 mM CaCl2 or 10 mM MgCl2 (or 0.4 mM EDTA without divalent metal); 1 µM enzyme (Trp) or 1 µM DNA (FRET); buffer, salt and pH not in the supplied text
Nt.BspD6I [5] = molecular target: T1, Nt.BspD6I; experiment: stopped-flow Trp fluorescence; 0.4 mM EDTA, no divalent metal; Stopped-flow, 37 °C, 10 mM CaCl2 or 10 mM MgCl2 (or 0.4 mM EDTA without divalent metal); 1 µM enzyme (Trp) or 1 µM DNA (FRET); buffer, salt and pH not in the supplied text
Nt.BspD6I [6] = molecular target: T1, Nt.BspD6I; experiment: stopped-flow Trp fluorescence; 10 mM Ca2+; Stopped-flow, 37 °C, 10 mM CaCl2 or 10 mM MgCl2 (or 0.4 mM EDTA without divalent metal); 1 µM enzyme (Trp) or 1 µM DNA (FRET); buffer, salt and pH not in the supplied text
Nt.BspD6I [7] = molecular target: T1, Nt.BspD6I; experiment: stopped-flow Trp fluorescence; 10 mM Mg2+; Stopped-flow, 37 °C, 10 mM CaCl2 or 10 mM MgCl2 (or 0.4 mM EDTA without divalent metal); 1 µM enzyme (Trp) or 1 µM DNA (FRET); buffer, salt and pH not in the supplied text
Nt.BspD6I [8] = molecular target: T1, Nt.BspD6I; experiment: stopped-flow Trp fluorescence; 10 mM Mg2+; kobs k1 145 s-1, k2 10.0 s-1; Stopped-flow, 37 °C, 10 mM CaCl2 or 10 mM MgCl2 (or 0.4 mM EDTA without divalent metal); 1 µM enzyme (Trp) or 1 µM DNA (FRET); buffer, salt and pH not in the supplied text

B1: II-19 (dsDNA)
DNA 1: GGTCTCGAGTCTTCTCAAG
DNA 2: CTTGAGAAGACTCGAGACC
- binding result (Nt.BspD6I [1]): binds

B2: III-21 (dsDNA)
DNA 1: GGTCTCGAGTCTTCTCAAGGT
DNA 2: ACCTTGAGAAGACTCGAGACC
- binding result (Nt.BspD6I [2]): binds

B3: V-26 (dsDNA)
DNA 1: CGTGGTCTCGAGTCTTCTCAAGGTAC
DNA 2: GTACCTTGAGAAGACTCGAGACCACG
- binding result (Nt.BspD6I [3]): binds

B4: I-17 (dsDNA)
DNA 1: GGTCTCGAGTCTTCTCA
DNA 2: TGAGAAGACTCGAGACC
- binding result (Nt.BspD6I [4]): binds

B5: VI-30 (dsDNA)
DNA 1: GCGTGGTCTCGAGTCTTCTCAAGGTACCTG
DNA 2: CAGGTACCTTGAGAAGACTCGAGACCACGC
- Kd (Nt.BspD6I [5]): 13 ± 3 nM

B6: VI-30N (dsDNA)
DNA 1: GTATGAAGCTAGAGCCAGGTTGGCAGCATC
DNA 2: GATGCTGCCAACCTGGCTCTAGCTTCATAC
- Kd (Nt.BspD6I [6]): 60 ± 20 nM
- Kd (Nt.BspD6I [7]): 70 ± 20 nM

B7: IV-23 (dsDNA)
DNA 1: GGTCTCGAGTCTTCTCAAGGTAC
DNA 2: GTACCTTGAGAAGACTCGAGACC
- binding result (Nt.BspD6I [8]): binds
